Test results published in US20190300589A1 (GREENOVATION BIOTECH, published 2019).

B1: MFHR1 (His-tag - FHR1(SCR1-2)-FH(SCR1-4)-FH(SCR19-20)) (other)
chain: ADLGSHHHHHHHHHHDYDRSFCDFPKINHGILYDEEKYKPFSQVPTGEVFYYSCEYNFVSPSKSFWTRITCTEEGWSPTPKCLRLCFFPFVENGHSESSGQTHLEGDTVQIICNTGYRLQNNENNISCVERGWSTPPKCRSEDCNELPPRRNTEILTGSWSDQTYPEGTQAIYKCRPGYRSLGNVIMVCRKGEWVALNPLRKCQKRPCGHPGDTPFGTFTLTGGNVFEYGVKAVYTCNEGYQLLGEINYRECDTDGWTNDIPICEVVKCLPVTAPENGKIVSSAMEPDREYHFGQAVRFVCNSGYKIEGDEEMHCSDDGFWSKEKPKCVEISCKSPDVINGSPISQKIIYKENERFQYKCNMGYEYSERGDAVCTESGWRPLPSCEDSTGKCGPPPPIDNGDITSFPLSVYAPASSVEYQCQNLYQLEGNKRITCRNGQWSEPPKCLHPCVISREIMENYNIALRWTAKQKLYSRTGESVEFVCKRGYRLSSRSHTLRTTCWDGKLEYPTCAKR
notes: Recombinant fusion protein expressed in SF9 insect cells (baculovirus); By size exclusion chromatography it runs mostly as a multimer; also called MFHR1 with His tag
B2: human plasma derived Factor H (hFH) (other)
chain: EDCNELPPRRNTEILTGSWSDQTYPEGTQAIYKCRPGYRSLGNVIMVCRKGEWVALNPLRKCQKRPCGHPGDTPFGTFTLTGGNVFEYGVKAVYTCNEGYQLLGEINYRECDTDGWTNDIPICEVVKCLPVTAPENGKIVSSAMEPDREYHFGQAVRFVCNSGYKIEGDEEMHCSDDGFWSKEKPKCVEISCKSPDVINGSPISQKIIYKENERFQYKCNMGYEYSERGDAVCTESGWRPLPSCEEKSCDNPYIPNGDYSPLRIKHRTGDEITYQCRNGFYPATRGNTAKCTSTGWIPAPRCTLKPCDYPDIKHGGLYHENMRRPYFPVAVGKYYSYYCDEHFETPSGSYWDHIHCTQDGWSPAVPCLRKCYFPYLENGYNQNYGRKFVQGKSIDVACHPGYALPKAQTTVTCMENGWSPTPRCIRVKTCSKSSIDIENGFISESQYTYALKEKAKYQCKLGYVTADGETSGSITCGKDGWSAQPTCIKSCDIPVFMNARTKNDFTWFKLNDTLDYECHDGYESNTGSTTGSIVCGYNGWSDLPICYERECELPKIDVHLVPDRKKDQYKVGEVLKFSCKPGFTIVGPNSVQCYHFGLSPDLPICKEQVQSCGPPPELLNGNVKEKTKEEYGHSEVVEYYCNPRFLMKGPNKIQCVDGEWTTLPVCIVEESTCGDIPELEHGWAQLSSPPYYYGDSVEFNCSESFTMIGHRSITCIHGVWTQLPQCVAIDKLKKCKSSNLIILEEHLKNKKEFDHNSNIRYRCRGKEGWIHTVCINGRWDPEVNCSMAQIQLCPPPPQIPNSHNMTTTLNYRDGEKVSVLCQENYLIQEGEEITCKDGRWQSIPLCVEKIPCSQPPQIEHGTINSSRSSQESYAHGTKLSYTCEGGFRISEENETTCYMGKWSSPPQCEGLPCKSPPEISHGVVAHMSDSYQYGEEVTYKCFEGFGIDGPAIAKCLGEKWSHPPSCIKTDCLSLPSFENAIPMGEKKDVYKAGEQVTYTCATYYKMDGASNVTCINSRWTGRPTCRDTSCVNPPTVQNAYIVSRQMSKYPSGERVRYQCRSPYEMFGDEEVMCLNGNWTEPPQCKDSTGKCGPPPPIDNGDITSFPLSVYAPASSVEYQCQNLYQLEGNKRITCRNGQWSEPPKCLHPCVISREIMENYNIALRWTAKQKLYSRTGESVEFVCKRGYRLSSRSHTLRTTCWDGKLEYPTCAKR
notes: Purified from human plasma, so the mature protein; also called FHplasma; plasma purified FH

Legend:
[1] = biological target: the molecule itself; experiment: size exclusion chromatography (Superdex 200 10/300 GL), self-association
Method: FIG. 5. Multimeric complexes increase AP regulatory activity of MFHR1 in human serum. A) Size exclusion chromatography (Superdex 200 10/300 GL) of bovine serum albumin (BSA), serum plasma derived FH (hFH) and MFHR1. The three compositions of BSA mixture presented different retention volumes based on molecular mass, which was I. BSA trimer (198 kDa, 10.35 ml), II. BSA dimer (132 kDa, 11.45 ml) and III. BSA monomer (66 kDa, 13.4 ml). […] Theoretical trimer (II. 10.7), dimer (III. 11.4) intermediates (IV.-V.) or monomeric (IV. 13.5) MFHR1 are indicated in the elution profile. B) Analysis of MFHR1 after elution from SEC column as performed in A. 20 μl protein from fractions was loaded on a 10% SDS-PAGE and silver stained C) Afterwards, single or pooled MFHR1 SEC fractions were added into human serum at 10 nM and AP activation was proceeded by incubation in LPS coated wells using AP specific buffer conditions. Regulatory efficiency of MFHR1 fractions was analyzed by measuring C5b-9 complex formation. AP activity of untreated control serum was set to 100%.

[2] = biological target: C5 (complement component C5) (UniProt P01031 19-673; P01031 678-1676); experiment: ELISA, hFH (133 nM) immobilised, C5 in solution, detected with monoclonal C5 antibodies
Method: FIG. 3. MFHR1 binds C5 and regulates terminal pathway activation by inhibition of the C5 convertase/C5 cleavage and MAC formation. A) MFHR1 binds to C5 as determined by ELISA. Equimolar amounts of MFHR1, full length FHR1, hFH or BSA (133 nM) were immobilized to Nunc plates and incubated with increasing concentrations (10, 20, 40 μg/ml) of C5. Binding was detected using monoclonal C5 antibodies and HRP-labelled secondary antibodies. Data are mean±SD from n=3 experiments B) MFHR1 inhibits AP activation by blockade of C5 cleavage. Cobra venom factor (CVF) C5 convertase was generated on sheep erythrocytes (sE) after adding Factor B (FB) and Factor D (FD). Hemolysis was induced after adding C5, C6, C7, C8 and C9 components and detected at 414 nm. […] C) MFHR1 inhibits formation of the membrane attack complex (MAC) on sE. MAC formation on sE was induced by incubation with C5b6, C7, C8 and C9 components and detected by hemolysis of cells. Preincubation of C5b6 with MFHR1, FHR1 or Eculizumab inhibited hemolysis at significant levels compared to hFH or BSA. […] In B and C control without regulator (w/o) was set as 100%. All data represent mean values ±SD of 3 separate experiments. ***P<0.001 vs. w/o control, one-way ANOVA with Bonferroni multiple comparison test.

Chain of C5 (complement component C5) (P01031 19-673 limits assumed, chain 1 of 2): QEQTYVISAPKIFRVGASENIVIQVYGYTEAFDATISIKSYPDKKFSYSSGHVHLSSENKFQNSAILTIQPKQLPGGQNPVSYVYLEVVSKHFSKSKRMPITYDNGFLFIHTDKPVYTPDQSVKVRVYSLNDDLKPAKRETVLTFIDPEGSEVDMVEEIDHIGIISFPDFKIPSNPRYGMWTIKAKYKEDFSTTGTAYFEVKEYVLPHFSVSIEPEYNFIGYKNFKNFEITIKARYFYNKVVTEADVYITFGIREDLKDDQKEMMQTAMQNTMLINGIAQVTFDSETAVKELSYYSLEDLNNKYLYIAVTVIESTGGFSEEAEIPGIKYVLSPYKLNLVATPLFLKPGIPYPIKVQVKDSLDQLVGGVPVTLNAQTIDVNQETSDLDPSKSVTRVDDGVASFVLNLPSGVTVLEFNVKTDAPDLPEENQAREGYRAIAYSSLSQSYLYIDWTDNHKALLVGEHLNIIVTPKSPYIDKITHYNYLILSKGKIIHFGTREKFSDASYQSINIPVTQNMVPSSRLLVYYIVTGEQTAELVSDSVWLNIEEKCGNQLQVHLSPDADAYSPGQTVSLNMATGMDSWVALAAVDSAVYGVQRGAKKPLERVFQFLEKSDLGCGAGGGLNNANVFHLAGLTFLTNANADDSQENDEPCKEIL
Chain of C5 (complement component C5) (P01031 678-1676 limits assumed, chain 2 of 2): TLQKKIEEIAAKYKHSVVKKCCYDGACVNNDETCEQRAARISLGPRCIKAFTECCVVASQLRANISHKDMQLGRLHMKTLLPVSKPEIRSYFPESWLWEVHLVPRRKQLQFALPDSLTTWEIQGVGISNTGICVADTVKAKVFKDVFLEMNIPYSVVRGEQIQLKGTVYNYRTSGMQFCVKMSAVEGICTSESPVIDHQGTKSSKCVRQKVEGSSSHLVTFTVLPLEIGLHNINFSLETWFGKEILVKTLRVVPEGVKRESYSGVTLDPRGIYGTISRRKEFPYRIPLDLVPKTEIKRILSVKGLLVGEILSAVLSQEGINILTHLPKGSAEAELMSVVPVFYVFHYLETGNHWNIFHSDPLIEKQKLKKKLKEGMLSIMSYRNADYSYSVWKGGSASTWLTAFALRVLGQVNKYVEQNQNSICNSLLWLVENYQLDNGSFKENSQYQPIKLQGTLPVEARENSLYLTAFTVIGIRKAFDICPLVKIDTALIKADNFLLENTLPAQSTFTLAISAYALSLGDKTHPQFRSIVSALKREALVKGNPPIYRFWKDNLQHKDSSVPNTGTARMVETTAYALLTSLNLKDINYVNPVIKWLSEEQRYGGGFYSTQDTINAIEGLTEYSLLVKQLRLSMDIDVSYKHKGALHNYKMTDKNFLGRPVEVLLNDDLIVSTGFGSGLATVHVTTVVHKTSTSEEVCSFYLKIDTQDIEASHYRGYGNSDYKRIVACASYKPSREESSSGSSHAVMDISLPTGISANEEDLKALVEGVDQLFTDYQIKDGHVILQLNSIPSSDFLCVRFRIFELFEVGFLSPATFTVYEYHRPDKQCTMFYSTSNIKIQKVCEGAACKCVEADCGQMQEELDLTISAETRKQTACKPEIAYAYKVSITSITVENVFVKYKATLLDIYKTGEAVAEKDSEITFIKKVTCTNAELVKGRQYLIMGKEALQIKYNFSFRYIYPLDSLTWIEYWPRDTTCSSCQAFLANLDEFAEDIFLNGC

| Binder | binding result [1] | binding result [2] |
| --- | --- | --- |
| B1 | binds |  |
| B2 |  | no binding (tested: 10, 20, 40 µg/ml of C5) |
